Experimental data taken from paper doi:10.1101/2024.08.12.607649 (bioRxiv, 2024).

Target: T1, Msn5_(βC-helix-tail) (residues 1179-1224 removed) (S. cerevisiae, UniProt P52918 1-1178)
T1 sequence (looked up): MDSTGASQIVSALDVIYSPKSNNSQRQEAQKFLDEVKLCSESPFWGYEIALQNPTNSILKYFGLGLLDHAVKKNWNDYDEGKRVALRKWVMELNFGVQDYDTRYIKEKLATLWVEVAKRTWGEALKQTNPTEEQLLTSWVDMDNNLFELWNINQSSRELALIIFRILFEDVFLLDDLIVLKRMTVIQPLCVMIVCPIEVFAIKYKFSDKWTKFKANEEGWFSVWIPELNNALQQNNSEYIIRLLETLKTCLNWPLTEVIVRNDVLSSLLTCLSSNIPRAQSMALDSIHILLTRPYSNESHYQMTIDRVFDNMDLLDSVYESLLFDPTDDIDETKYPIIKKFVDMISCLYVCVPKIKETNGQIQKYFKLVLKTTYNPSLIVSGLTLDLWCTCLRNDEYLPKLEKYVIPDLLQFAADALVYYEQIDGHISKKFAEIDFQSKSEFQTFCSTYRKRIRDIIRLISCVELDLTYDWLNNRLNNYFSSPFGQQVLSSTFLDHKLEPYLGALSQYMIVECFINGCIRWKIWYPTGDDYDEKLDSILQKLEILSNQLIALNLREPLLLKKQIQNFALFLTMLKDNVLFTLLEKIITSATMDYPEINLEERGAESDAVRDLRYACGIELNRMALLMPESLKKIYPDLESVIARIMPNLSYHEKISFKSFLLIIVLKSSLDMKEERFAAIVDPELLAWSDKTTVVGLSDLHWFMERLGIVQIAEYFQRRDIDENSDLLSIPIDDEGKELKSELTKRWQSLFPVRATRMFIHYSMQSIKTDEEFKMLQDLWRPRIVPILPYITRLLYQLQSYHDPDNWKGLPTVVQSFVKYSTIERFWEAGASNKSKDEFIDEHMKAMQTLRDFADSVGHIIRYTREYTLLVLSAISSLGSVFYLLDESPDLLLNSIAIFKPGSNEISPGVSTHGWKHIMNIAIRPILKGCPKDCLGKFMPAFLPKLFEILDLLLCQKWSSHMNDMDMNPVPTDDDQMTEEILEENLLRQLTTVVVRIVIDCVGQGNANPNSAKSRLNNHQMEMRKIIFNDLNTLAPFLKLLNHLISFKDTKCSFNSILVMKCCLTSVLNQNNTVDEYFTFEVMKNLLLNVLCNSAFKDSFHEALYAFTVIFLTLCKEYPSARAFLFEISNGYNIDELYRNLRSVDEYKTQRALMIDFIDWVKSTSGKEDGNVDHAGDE
Test: pull-down

B1: GST-pPho4_(1-200) (domain or fragment, S. cerevisiae, UniProt P07270 1-200, looked up)
chain: MGRTTSEGIHGFVDDLEPKSSILDKVGDFITVNTKRHDGREDFNEQNDELNSQENHNSSENGNENENEQDSLALDDLDRAFELVEGMDMDWMMPSHAHHSPATTATIKPRLLYSPLIHTQSAVPVTISPNLVATATSTTSANKVTKNKSNSSPYLNKRRGKPGPDSATSLFELPDSVIPTPKPKPKPKQYPKVILPSNST
modifications: phosphoserine at 100, 114, 128, 152 (in vitro phosphorylation by Pho80-Pho85)
- binding result: binds
